Entries after “also recorded” stand apart in the source; their conditions may differ.

One assay concerns MCF-7^EphA2 cells. Put plainly: Soft agar colonization of MCF-7^EphA2 cells. The assay is classed as cell-based, human. To be noted: EA2 10 μg/ml, tamoxifen 1 μM. How it is done: FIGS. 11A-11B: EphA2 overexpression decreases tamoxifen sensitivity. (A) 1×10^5 MCF-7 or MCF-7^EphA2 cells were suspended in soft agar in the presence of 1 μM tamoxifen (TAM) and or 1 μM 17β-estradiol and colony formation was evaluated microscopically after 14 days. (B) MCF-7 (circles) or MCF-7^EphA2 cells (squares) were implanted into the mammary fatpad (n=15 mice per group) in the presence of supplemental estrogen. Tamoxifen treatment was initiated 17 days post-implantation. Tumor volume of tamoxifen treated (black circles and squares) and saline treated (white circles and squares) animals was measured at the indicated time.
FIGS. 13A-13C: EphA2 agonistic antibody EA2 decreases malignant growth. MCF-7^EPhA2 cells were incubated in the presence of 3 μg/ml of EA2 for the time indicated prior to sample extraction and western blot analyses with an EphA2-specific antibody (D7). […]
EphA2 overexpression increased malignant growth (FIGS. 8A-8B). […] Colony formation in soft agar was performed as previously described (Zelinski et al., 2001, Cancer Res. 61:2301-6) and scored microscopically, defining clusters of at least three cells as a positive. […] Error bars represent the standard error of the mean of at least three different experiments as determined using Microsoft Excel software.
Sensitivity of MCF-7^EphA2 cells to tamoxifen was measured. […]

Assay [1] deals with MDA-MB-231 breast cancer cells implanted orthotopically. Put plainly: Tumor growth in vivo, MDA-MB-231 implanted orthotopically. Also noted: species or system athymic mice. Conditions: 6mg/kg intraperitoneally twice a week for 3 weeks; versus PBS or 1A7. How it is done:
FIGS. 7A-7D: The EphA2 antibodies, EA2, Eph099B-208.261, and Eph099B-233.152, inhibit tumor cell growth in vivo. MDA-MB-231 breast cancer cells were implanted (A) orthotopically or (B) subcutaneously into athymic mice. (C) A549 lung cancer cells were implanted subcutaneously into athymic mice. After the tumors had grown to an average volume of 100 mm^3, mice were administered 6 mg/kg of the indicated antibody or negative control (PBS or 1A7 antibody) intraperitoneally twice a week for 3 weeks. Tumor growth was assessed and expressed as a ratio of the tumor volume divided by initial tumor volume (100 mm^3). (D) MDA-MB-231 breast cancer cells were implanted subcutaneously into athymic mice. After the tumors had grown to an average volume of 100 mm^3, mice were administered 6 mg/kg of the indicated antibody or negative control intraperitoneally twice a week for 3 weeks. Total tumor volume was determined after sacrifice. Negative control is black, EA2 is white, Eph099B-208.261 is dark grey, and Eph099B-233.152 is light grey.
5×10^6MDA-MB-231 breast cancer cells were implanted orthotopically or subcutaneously and 5×10^6 A549 lung cancer cells were implanted subcutaneously into athymic mice. […] Tumor growth was assessed and expressed either as a ratio of the tumor volume divided by initial tumor volume (100 mm^3) or as total tumor volume. […]

In assay [2] the test system is EphA2 on non-transformed MCF-10A cells. Description: Immunofluorescence binding to non-transformed cells with or without EGTA. It counts as cell-based. Conditions: 4mM EGTA for 20 min. How it is done: (A, B) Non-transformed MCF-10A cells were labeled with EA2 at 4° C. either before (A) or after (B) treatment with EGTA and prior to fixation and immunolabeling with fluorophore-conjugated anti-mouse IgG. (C, D) Non-transformed MCF-10A (C) or transformed MDA-MB-231 (D) cells were labeled with EA2 either before (middle) or after (top) treatment with EGTA. Control cells were incubated with secondary antibody alone (bottom). The amount of EA2-EphA2 binding was measured using flow cytometry.
The epitopes of EphA2 antibodies were characterized. Non-transformed MCF-10A cells or transformed MDA-MB-231 cells were incubated with 10 μg/ml Eph099B-233.152 or EA2 at 4° C. for 30 min. prior to fixation in a 3% formalin solution and immunolabeling with fluorophore-conjugated anti-mouse IgG. […] Treatment of non-transformed MCF-10A cells with 4mM EGTA for 20 min. dissociated the cells.

B1: EA2: EphA2 agonistic monoclonal antibody; ATCC deposit no. PTA-4380; co-pending application Ser. No. 10/436,783; VL SEQ ID NO:33, VH SEQ ID NO:37 (antibody, listed as Homo Sapiens, V domains shown)
VH: DVKLVESGGGLVKPGGSLKLSCAASGFTFSSYTMSWVRQTPEKRLEWVATISSGGTYTYYPDSVKGRFTISRDNAKNTLYLQMSSLKSEDTAMYYCTREAIFTYWGQGTLVTVSA
VL: DIKMTQSPSSMYASLGERVTITCKASQDINNYLSWFQQKPGKSPKTLIYRANRLVDGVPSRFSGSGSGQDYSLTISSLEYEDMGIYYCLKYDEFPYTFGGGTKLEIK
B1: in the assay on MCF-7^EphA2 cells, the “Sensitivity of MCF-7^EphA2 cells to tamoxifen in soft agar” value is listed as “increased the sensitivity of MCF-7^EphA2 cells to tamoxifen” and the “Inhibition / decrease of soft agar colonization, MCF-7^EphA2 cells” value worked out at 19%. For the same molecule, the “Growth of MDA-MB-231 cells implanted orthotopically” value in assay [1] is “inhibited”. Besides, in assay [2], the “Binding to EphA2 on MCF-10A cells with or without EGTA dissociation” value is reported as “bound EphA2 on the EGTA dissociated cells but not the untreated cells; also recorded: preferentially binds EphA2 epitopes exposed by decreasing cell-cell contacts”.

The values above are taken from US20100278838A1, “EPHA2 MONOCLONAL ANTIBODIES AND METHODS OF USE THEREOF” (MEDIMMUNE, LLC, priority 2002, published 2010).
